Assay results reported in PMC9117880.
Several values for one entry are separate records, joined by “and”; a condition that tells them apart may be missing. Equal values may be shown once. Read-outs that look alike come from different tables or passages of the source.

Assays:
Experiment in all cases: MST
[1] = biological target: SRS-MTBD (22/19) D3402A mutant (not stated | mouse)
[2] = biological target: SRS-MTBD (22/19) D3402A mutant (not stated | mouse); remark: listed apart in the source
[3] = biological target: SRS-MTBD (22/19) D3402A mutant (not stated | mouse); remark: listed apart in the source
[4] = biological target: SRS-MTBD (22/19) D3402A mutant (not stated | mouse); remark: listed apart in the source

## taxol-stabilized, unlabeled microtubules (porcine brain tubulin) (from UniProt P02550 1-451) (complex)
[1]
  Kd: 5.49 µM
[2]
  Kd: 0.46 µM
[3]
  Kd: 13 µM and 14.7 µM
[4]
  Kd: 0.53 µM
